{
  "source": "paper PMC5324060",
  "about": "“Evolutionary, computational, and biochemical studies of the salicylaldehyde dehydrogenases in the naphthalene degradation pathway” (Scientific Reports, 2017)",
  "key": {"[1]": {"substrate": "NC(=O)c1ccc[n+]([C@@H]2O[C@H](COP(=O)([O-])OP(=O)(O)OC[C@H]3O[C@@H](n4cnc5c(N)ncnc54)[C@H](O)[C@@H]3O)[C@@H](O)[C@H]2O)c1", "test": "Kinetics assay of wild-type recombinant SALDan (NADH appearance at 340 nm)", "assay_type": "biochemical, Alteromonas naphthalenivorans", "conditions": "other: wild-type; aldehyde varied at NAD^+ 100 μM, enzyme 0.1 μM; for NAD^+: SAL fixed 50 μM, NAD^+ 0–500 μM; 45.0 °C"}, "[2]": {"substrate": "O=Cc1ccccc1Cl", "test": "Kinetics assay of wild-type recombinant SALDan (NADH appearance at 340 nm)", "assay_type": "biochemical, Alteromonas naphthalenivorans", "conditions": "other: wild-type; aldehyde varied at NAD^+ 100 μM, enzyme 0.1 μM; for NAD^+: SAL fixed 50 μM, NAD^+ 0–500 μM; 45.0 °C"}, "[3]": {"substrate": "O=Cc1ccccc1O", "test": "Kinetics assay of wild-type recombinant SALDan (NADH appearance at 340 nm)", "assay_type": "biochemical, Alteromonas naphthalenivorans", "conditions": "other: wild-type; aldehyde varied at NAD^+ 100 μM, enzyme 0.1 μM; for NAD^+: SAL fixed 50 μM, NAD^+ 0–500 μM; 45.0 °C"}, "[4]": {"substrate": "O=CCCCC=O", "test": "Kinetics assay of wild-type recombinant SALDan (NADH appearance at 340 nm)", "assay_type": "biochemical, Alteromonas naphthalenivorans", "conditions": "other: wild-type; aldehyde varied at NAD^+ 100 μM, enzyme 0.1 μM; for NAD^+: SAL fixed 50 μM, NAD^+ 0–500 μM; 45.0 °C"}, "[5]": {"substrate": "O=Cc1ccc2ccccc2c1", "test": "Kinetics assay of wild-type recombinant SALDan (NADH appearance at 340 nm)", "assay_type": "biochemical, Alteromonas naphthalenivorans", "conditions": "other: wild-type; aldehyde varied at NAD^+ 100 μM, enzyme 0.1 μM; for NAD^+: SAL fixed 50 μM, NAD^+ 0–500 μM; 45.0 °C"}, "[6]": {"target": "the molecule itself", "test": "cross-linking; purified SALDan (0.5 mg/ml) with 0.1% aldehyde for various periods at 25 °C, quenched with 1 M Tris-HCl, SDS-PAGE and Coomassie staining"}, "[7]": {"target": "the molecule itself", "test": "SEC; purified SALDan on a Superdex 200 10/300 GL column, against standards ferritin, catalase, alcohol dehydrogenase, albumin, ovalbumin; one peak at approximately 160 kDa (monomer approximately 53 kDa)"}, "[8]": {"substrate": "O=Cc1cccc(Cl)c1", "test": "purified protein, by the assay type", "conditions": "other: wild-type; aldehyde varied at NAD^+ 100 μM, enzyme 0.1 μM; for NAD^+: SAL fixed 50 μM, NAD^+ 0–500 μM; 45.0 °C"}, "[9]": {"substrate": "O=Cc1ccc([N+](=O)[O-])cc1", "test": "purified protein, by the assay type", "conditions": "other: wild-type; aldehyde varied at NAD^+ 100 μM, enzyme 0.1 μM; for NAD^+: SAL fixed 50 μM, NAD^+ 0–500 μM; 45.0 °C"}, "[10]": {"substrate": "O=Cc1ccc(Cl)cc1", "test": "purified protein, by the assay type", "conditions": "other: wild-type; aldehyde varied at NAD^+ 100 μM, enzyme 0.1 μM; for NAD^+: SAL fixed 50 μM, NAD^+ 0–500 μM; 45.0 °C"}},
  "data": [
    {"protein": "Salicylaldehyde dehydrogenase from Alteromonas naphthalenivorans (SALDan) (enzyme, UniProt F5Z5S7 1-483, looked up, Salicylaldehyde dehydrogenase (EC 1.2.1.65) of Alteromonas naphthalenivorans, UniProt F5Z5S7; amplified from genomic DNA with primers from the ATG start codon to the stop codon; about 53 kDa on SDS-PAGE; Cloned between BamHI and HindIII of pET28a; also called SAL dehydrogenase; WT; source: E. coli BL21 (DE3), pET28a, purified (Ni-NTA column)) MKTQLIINNKFVDSESTNTFERYNQTLGEVVTSAAAASVADANNAAEVAQEAFKSWSKTGPTERRNVLLKAADILESKTAEFIDVMAKEVGSSGLWAGFNVMLAANVFREAASLATQIQGETIPTDKPGTLSMTIREPVGVILSIAPWNGPIVLAARAIAYPIVCGNSVVFKASEVSPKTHSLVVEAVIEAGLPAGVLNLLSNKPEDGESIVNALIEHKAVRRINFTGSTHVGRIIAQKAGYHLKRCLLELGGKSPQVILDDANLKEAAKAATFGSFLYQGQICMTTGRIIVDESVADEFGEIFAKLASKLPVGNPCDNNDCIVGPVVTQSSAERLNGYIDDALSKGAKLITGGKANGTVMKPTILDHVTSDMEIYHEESFGPLICMVRVKNADEALHTANDTPYGLSAAVFGKDVNRALQMAKDINAGHCHVNGTTVQNDAQAPYGGTKDSGWGRFDGRAVIDEFTELKWITIEPIVQDYPF", "values": [
      {"measurement": "Km", "setting": "[1]", "result": "39.5 ± 3.2", "unit": "µM"},
      {"measurement": "Vmax", "setting": "[1]", "result": 94.1, "unit": "µmol/min/mg"},
      {"measurement": "kcat", "setting": "[1]", "result": "234 ± 24.2", "unit": "s⁻¹"},
      {"measurement": "kcat/Km", "setting": "[1]", "result": "5.9e+06 ± 500000", "unit": "M⁻¹ s⁻¹"},
      {"measurement": "Km", "setting": "[2]", "result": "3.2 ± 0.3", "unit": "µM"},
      {"measurement": "Vmax", "setting": "[2]", "result": 45.6, "unit": "µmol/min/mg"},
      {"measurement": "kcat", "setting": "[2]", "result": "114 ± 17.2", "unit": "s⁻¹"},
      {"measurement": "kcat/Km", "setting": "[2]", "result": "3.57e+07 ± 4.5e+06", "unit": "M⁻¹ s⁻¹"},
      {"measurement": "Km", "setting": "[3]", "result": "3.8 ± 0.5", "unit": "µM"},
      {"measurement": "Vmax", "setting": "[3]", "result": 49.5, "unit": "µmol/min/mg"},
      {"measurement": "kcat", "setting": "[3]", "result": "124 ± 13.6", "unit": "s⁻¹"},
      {"measurement": "kcat/Km", "setting": "[3]", "result": "3.25e+07 ± 4.2e+06", "unit": "M⁻¹ s⁻¹"},
      {"measurement": "Km", "setting": "[4]", "result": "560 ± 46.0", "unit": "µM"},
      {"measurement": "Vmax", "setting": "[4]", "result": 11.6, "unit": "µmol/min/mg"},
      {"measurement": "kcat", "setting": "[4]", "result": "29.6 ± 3.7", "unit": "s⁻¹"},
      {"measurement": "kcat/Km", "setting": "[4]", "result": 53000, "unit": "M⁻¹ s⁻¹"},
      {"measurement": "Km", "setting": "[5]", "result": "3.4 ± 0.5", "unit": "µM"},
      {"measurement": "Vmax", "setting": "[5]", "result": 61.4, "unit": "µmol/min/mg"},
      {"measurement": "kcat", "setting": "[5]", "result": "153 ± 14.4", "unit": "s⁻¹"},
      {"measurement": "kcat/Km", "setting": "[5]", "result": "4.5e+07 ± 4.4e+06", "unit": "M⁻¹ s⁻¹"},
      {"measurement": "stoichiometry N", "setting": "[6]", "result": 3},
      {"measurement": "stoichiometry N", "setting": "[7]", "result": 3, "unit": "subunits"},
      {"measurement": "Km", "setting": "[8]", "result": "4.8 ± 0.7", "unit": "µM"},
      {"measurement": "Vmax", "setting": "[8]", "result": 56.8, "unit": "µmol/min/mg"},
      {"measurement": "kcat", "setting": "[8]", "result": 142, "unit": "s⁻¹"},
      {"measurement": "kcat/Km", "setting": "[8]", "result": "2.96e+07", "unit": "M⁻¹ s⁻¹"},
      {"measurement": "Km", "setting": "[9]", "result": "6.5 ± 0.9", "unit": "µM"},
      {"measurement": "Vmax", "setting": "[9]", "result": 32.3, "unit": "µmol/min/mg"},
      {"measurement": "kcat", "setting": "[9]", "result": 80.2, "unit": "s⁻¹"},
      {"measurement": "kcat/Km", "setting": "[9]", "result": "1.23e+07", "unit": "M⁻¹ s⁻¹"},
      {"measurement": "Km", "setting": "[10]", "result": "5.5 ± 1.1", "unit": "µM"},
      {"measurement": "Vmax", "setting": "[10]", "result": 74.2, "unit": "µmol/min/mg"},
      {"measurement": "kcat", "setting": "[10]", "result": 186, "unit": "s⁻¹"},
      {"measurement": "kcat/Km", "setting": "[10]", "result": "3.37e+07", "unit": "M⁻¹ s⁻¹"}
    ]}
  ]
}
